This note sets out measurements from the nanobody polyreactivity screen of Harvey et al. (2022).

The series in a line: yeast display, Sf9 membrane polyspecificity reagent, FACS + sequencing; frameworks hold sequencing errors. Put shortly:
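Genes from sorted yeast were amplified by colony PCR, read by MiSeq 2 × 250 sequencing and filtered on CDR length. These cells carried a synthetic nanobody library in Saccharomyces cerevisiae BJ5465 and were sorted by FACS into low and high (top ~1%) gates on anti-HA and streptavidin fluorescence. Polyreactivity is labelled according to the gate of origin.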
On to “QVQLVESGGGLVQAGGSLRLSCAASGFTFYSNAMGWYRQAPGKERELVAAITSSGGSTYYADSVKGRFTISRDNAKNTVYLQMNSLKPEDTAVDYCNVRVGYRRYGYWGQGTQVTVSS”, for which the “polyreactivity (PSR sort gate)” value is recorded as “high polyreactivity”.

For “QVQLVESGGGLVQAGGSLRLSCAASGFTFYSYAMGWYRQAPGKEREFVAAGSTYYADSVKGRFTISRGNAKNTVYLQMNSLKPEDTAVYYCAADPWIYVQSYGYWGQGTQVTVSS”, the “polyreactivity (PSR sort gate)” value is reported as “low polyreactivity”.

With “QVQLVESGGGLVQAGGSLRLSCAASGFTFYSYAMGWYRQAPGKERELVAAISKRGGDTSYADSVKGRFTISRDNAKNTVYLQMNSLKPEDTAVYYCAKVYVPYGSSGGFLSRYNYWGQGTQVTVSS”, the “polyreactivity (PSR sort gate)” value is “high polyreactivity”.

“QVQLVESGGGLVQAGGSLRLSCAASGFTFYSYAMGWYRQAPGKERELVAAITRSGGSTRYADSVKGRFTISRDNAKNTVYLQMNSLKPEDTAVYYCAARFVRNYVYKYNYWGQGTQVTVSS”: the “polyreactivity (PSR sort gate)” value was “high polyreactivity”.

As for “QVQLVESGGGLVQAGGSLRLSCAASGFTFYSYAMGWYRQAPGKERELVAGISRSGGSTYYADSVKGRFTISRDNAKNTVYLQMNSLKPEDTAVYYCNVRLRKKIQNSKYDYWGQGTQVTVSS”, the “polyreactivity (PSR sort gate)” value is listed as “high polyreactivity”.

With “QVQLVESGGGLVQAGGSLRLSCAASGFTFYTNAMGWYRQAPGKERELVAAISKRGASTYYADSVKGRFTISRDNAKNTFYLQMYSLKPEDTAVYYCAASSRTHGSYYYWGQGTQVTVSS”, the “polyreactivity (PSR sort gate)” value was “high polyreactivity”.

In the case of “QVQLVESGGGLVQAGGSLRLSCAASGFTFYTNAMGWYRQAPGKERELVAGINSGSSTYYADSVKGRFTISRDNAKNTVYLQMNSLKPEDTAVYYCAARARRRYYYWGQGTQVTVSS”, the “polyreactivity (PSR sort gate)” value is “high polyreactivity”.

With “QVQLVESGGGLVQAGGSLRLSCAASGFTFYTNTMGWYRQAPGKERELVAVISRTGGSTYYADSVKGRFTISRDNANNTVYLQMKSLKPEDTAVYYCAKRGQWPYDYFIGNYWGQGSQVTVSS”, the “polyreactivity (PSR sort gate)” value is reported as “high polyreactivity”.

Turning to “QVQLVESGGGLVQAGGSLRLSCAASGFTFYTYALGWYRQAPGKEWELVAAITSGGGTYYADSVKGRFTISRDNAKNTVYLQMNSLKPEDTAVYYCNRASRRGYYYPYNYWGQGTQVTVSS”, the “polyreactivity (PSR sort gate)” value is listed as “high polyreactivity”.

Consider “QVQLVESGGGLVQAGGSLRLSCAASGFTFYTYVKGWYRQAPGKERELVAAITSGVSTNYADSVKGRFTISRDNAKNTVYLQMNSVKPEDTAVYYFNKTFLFLEYDSWGQGTQVTVSS”, for which the “polyreactivity (PSR sort gate)” value is reported as “low polyreactivity”.

Take “QVQLVESGGGLVQAGGSLRLSCAASGFTFYVNAMGWYRQAPGKERELVAVISTGGSTYYADSVKGRFTISRDNAKNTVYLQMNSLKPEDTAVYYCAKRDLPDRSGTPNVIPFDYWGQGTQVTVSS”: the “polyreactivity (PSR sort gate)” value is “low polyreactivity”.

For “QVQLVESGGGLVQAGGSLRLSCAASGFTFYVYAMGWYRQAPGKEREFVAAISSSGGSTYYADSVKGRFTISRDNAKNTVYLQMNSLKPEDTAVYYSAALAYSTTRGRLDYWGQGTQVTVSS”, the “polyreactivity (PSR sort gate)” value is given as “high polyreactivity”.

For “QVQLVESGGGLVQAGGSLRLSCAASGFTFYVYAMGWYRQAPGKERELVAAISRSGGSTYYADSVKGRFTISRDNAKNTVYLQMNSLKPEDTAVYYFAVVQRYWSPGIVPYVYWGQGTQVTVSS”, the “polyreactivity (PSR sort gate)” value is “high polyreactivity”.

As to “QVQLVESGGGLVQAGGSLRLSCAASGFTFYWYTMGWNRQAPGKERELVAAISRRGGSTSYADSVKGRFTISRDNAKNTVYLQMNSLKPEDTAVYYCAKTPGWTDYDYWGQGTQVTVSS”, the “polyreactivity (PSR sort gate)” value is recorded as “high polyreactivity”.

Consider “QVQLVESGGGLVQAGGSLRLSCAASGFTFYYNAMGGYRQAPGKEREFVAGITRTGGSTYYADSVKGRFTISRDNAMNTVYLQIKSLKPEDTAVYYCAATHYYYGTSRYDYWGQVTQVTVSS”, for which the “polyreactivity (PSR sort gate)” value was “high polyreactivity”.

With “QVQLVESGGGLVQAGGSLRLSCAASGFTFYYNAMGWYRQAPGKERELVAAISWTGGSTRYADSVKGRFTISRDNAKNTVYLQMNSLKPEDTAVYYCAARGYNYWGQGTQVTVSS”, the “polyreactivity (PSR sort gate)” value is listed as “high polyreactivity”.

As for “QVQLVESGGGLVQAGGSLRLSCAASGFTFYYNAMGWYRQAPGKERELVASITRSGGRTYYADSVKGRFTISRDNAMNTVYLKMNSLKPEDTAVYYCARRYPRGYYWGQGTQVTVSS”, the “polyreactivity (PSR sort gate)” value is on record as “high polyreactivity”.

“QVQLVESGGGLVQAGGSLRLSCAASGFTFYYNAMGWYRQAQGKERELVAAMSRSGGRTYYADSVKGRFTISRDNAKNTVYLQMNSLKPEDTAVYYCNRRTRPDGGESDYWGQGTLVTVSS”: the “polyreactivity (PSR sort gate)” value was “high polyreactivity”.

Regarding “QVQLVESGGGLVQAGGSLRLSCAASGFTFYYYAMGWSRQAPGKERELVASISKRGGTYYADSVKGRFTISRDNAKNTVYLQMNSLKPEDTAVYYCAAGIPRQAYKFYWGQGTQVTVSS”, the “polyreactivity (PSR sort gate)” value is “high polyreactivity”.

Turning to “QVQLVESGGGLVQAGGSLRLSCAASGFTFYYYAMGWYRPAPGKERELVAGITGSGGRTYYADSVKGRFTISRDNAKITVYLQMNSLKPEDTAVYYSNARSLWYDYWGQGTQVTVSS”, the “polyreactivity (PSR sort gate)” value is on record as “high polyreactivity”.

Regarding “QVQLVESGGGLVQAGGSLRLSCAASGFTFYYYAMGWYRQAPGKERELVAAISISGASTYYADSVKGRFTISRDNAKNTVYLQMNSLKPEETAVDYCAKRTKGYTYHHEYGYWGQGTQVTVSS”, the “polyreactivity (PSR sort gate)” value is given as “low polyreactivity”.

As to “QVQLVESGGGLVQAGGSLRLSCAASGFTFYYYAMGWYRQAPGKERELVAAISRSGGSTYYADSVKGRFTISRDNAKNTVYLQMNSLKPEDTAVYYCAARRLVGAERPGYDYWGQGTQVTVSS”, the “polyreactivity (PSR sort gate)” value is given as “high polyreactivity”.

Take “QVQLVESGGGLVQAGGSLRLSCAASGFTFYYYAMGWYRQAPGKERELVAAISTRDGNTYYADSVKGRFTISRDNAKNTVYLQMNSLKPEDTAVYYCAADYFRYYPYDYSGQGTQVTVSS”: the “polyreactivity (PSR sort gate)” value is recorded as “low polyreactivity”.

In the case of “QVQLVESGGGLVQAGGSLRLSCAASGFTFYYYAMGWYRQAPGKERELVAAITWSGDSTNYADSVKGRFTISRDNAKNTVYLQMNSLKPEDTAVYYCATESYDSYGLYDYWGQGTQVTVSS”, the “polyreactivity (PSR sort gate)” value is listed as “low polyreactivity”.

As to “QVQLVESGGGLVQAGGSLRLSCAASGFTFYYYAMGWYRQSPGKERELVAAISWNGGRTYYADSVKGRFTISRDTAKNNVYLQMNSLKPEDTAVYYCDTGYPIDLGREFDYWGQGIQVTVSS”, the “polyreactivity (PSR sort gate)” value was “high polyreactivity”.

As to “QVQLVESGGGLVQAGGSLRLSCAASGFTFYYYDMGWYRQAPGKERELVAAITTGGSTKYADSVKGRFTISRDNAKNTVYLQMNSLKPEDTAVYYCNADDSVYVFSKYDYWGQGTQVTVSS”, the “polyreactivity (PSR sort gate)” value is on record as “high polyreactivity”.

As to “QVQLVESGGGLVQAGGSLRLSCAASGFTFYYYTMGGSRQAPGKERELVAAITSRGGNTYYADSVKGRFTISRDYAKNTVYLQMNSLNPEDTAVYYCAACRFSSRGYGYWGQGTQVTVSS”, the “polyreactivity (PSR sort gate)” value is given as “high polyreactivity”.

For “QVQLVESGGGLVQAGGSLRLSCAASGFTFYYYTMGRYRQAPGKEIELLADISSGDRTYYADSVKGRFTISRDNAKNTVYLQMNSLKPEDTAVYYCAAPAKYYTRFGHYNLNQDYDSWGQGTQVTVSS”, the “polyreactivity (PSR sort gate)” value is “low polyreactivity”.

On to “QVQLVESGGGLVQAGGSLRLSCAASGFTIAQNVMGWYRQAPGKERELVAAISVSGGSTYYADSVKGRFTISRDNAKNTVYLQMNSLKPEDTAVYYCNAVAGVTKRVDLSRSGYWGLGTQVTVSS”, for which the “polyreactivity (PSR sort gate)” value was “high polyreactivity”.

For the sequence “QVQLVESGGGLVQAGGSLRLSCAASGFTIASNAMGWYRQAPGKERELVAAIRRSGSRTYYADSVKGRFTISRDNAKNTVYLQMNSLKPEDTAVYYCAVVSPRQSYYYWGQGTQVTVSS”, the “polyreactivity (PSR sort gate)” value is listed as “high polyreactivity”.

As for “QVQLVESGGGLVQAGGSLRLSCAASGFTIDSYAMGWYRQAPGTERELVAAISYRGGTTYYADSVKGRFTISRDNAKNTVYLQMNSLKPEDTAVYYCNRMWKYGFNYWGQGTQVTVSA”, the “polyreactivity (PSR sort gate)” value is “high polyreactivity”.

As for “QVQLVESGGGLVQAGGSLRLSCAASGFTIFIYAMGWYRQAPGKEREFVAAITGSGGSTYYADSVKGRFTISRDNAKNTVYLQMNSLKPEDTAVYYCAAESEYVYWYYVDYDYWGQGTQVTVSS”, the “polyreactivity (PSR sort gate)” value is “high polyreactivity”.

Turning to “QVQLVESGGGLVQAGGSLRLSCAASGFTIGANTMGWYRQAPGKERELVAAISASGGSTYYADSVKGRFTISRDNAKNTVYLQMNSLKPEDTAVYYCAARRYPGRTATYYSWGQGTQVTVSS”, the “polyreactivity (PSR sort gate)” value is on record as “high polyreactivity”.

For “QVQLVESGGGLVQAGGSLRLSCAASGFTIGHYAMGWYRQAPGKERELVAAISSGDRTYFADSVKGRFTISRDNAKNTFYLQMNSLKPEDTAVYYCNAVYYSWAQSARFDYWGQGTQVTVSS”, the “polyreactivity (PSR sort gate)” value is on record as “low polyreactivity”.

Take “QVQLVESGGGLVQAGGSLRLSCAASGFTIGRYDMGWYRQAPGKERELVAAISWSGGSTYYADSVKGRFTISRDNAKNTVYLQMNSLKPEDTAVYYCNAAYYGYENLSKRGYWGQGTQVTVSS”: the “polyreactivity (PSR sort gate)” value is given as “high polyreactivity”.

With “QVQLVESGGGLVQAGGSLRLSCAASGFTIGRYTMGWYRQAPGKERELVAAISWSGGSTYYADSVKGRFTISRDNAKNTVYLQMNSLKPEDTAVYYCAKVFRGGRGDYWGQGTQVTVSS”, the “polyreactivity (PSR sort gate)” value was “high polyreactivity”.

“QVQLVESGGGLVQAGGSLRLSCAASGFTIGYKVMGWYRQAPGKERELVATISWNGARTYYADSVKGRFTISRDNAKNTVYLQMNSLKPEDTAVYYCAARRYYRGEYDYWGQGTQVTVSS”: the “polyreactivity (PSR sort gate)” value is on record as “low polyreactivity”.

Consider “QVQLVESGGGLVQAGGSLRLSCAASGFTIHYNAMGWYRQAPGKERELVATISKSAGITSYADSVKGRFTISRDNAKNTVYLLMNSLKPEDTAVYYCAADKSYRRVYYWGQGTQVTVSS”, for which the “polyreactivity (PSR sort gate)” value was “low polyreactivity”.

As for “QVQLVESGGGLVQAGGSLRLSCAASGFTIQPYTMGWYRQATGKERELVAAISKSGGSTYYADSVKGRFTISRDNAKNTVYLQMHSLKPEDTAVYYCAAVGWWGTSDYWGQGTQVTVSS”, the “polyreactivity (PSR sort gate)” value is “high polyreactivity”.

With “QVQLVESGGGLVQAGGSLRLSCAASGFTIRSYVMGWYRQAPGKEREFVAAISYRGGGTNYADSVKGRFTISRDNAKNTVYLQMNSLKPEDTAVYYCNARSGSSKSGYYNWGQGTQVTVSS”, the “polyreactivity (PSR sort gate)” value is reported as “high polyreactivity”.

On to “QVQLVESGGGLVQAGGSLRLSCAASGFTISAYAMGWYRQAPGKERELVAAITSGGGSTRYADSVKGRFTISRDNAKNTVYLQMNSLKPEDTAVYYCAARNHRYKFNYWGQGTQVTVSS”, for which the “polyreactivity (PSR sort gate)” value is on record as “high polyreactivity”.
